# Test results from US20190284299A1 (BEIJING HANMI PHARMACEUTICAL, published 2019).
# T1: Trop-2 on BxPC3 cells (UniProt P09758 27-323, limits assumed)
# T1 construct: whole, on cells; also called BxPC3 cells with high expression Trop-2
# T1 sequence (looked up): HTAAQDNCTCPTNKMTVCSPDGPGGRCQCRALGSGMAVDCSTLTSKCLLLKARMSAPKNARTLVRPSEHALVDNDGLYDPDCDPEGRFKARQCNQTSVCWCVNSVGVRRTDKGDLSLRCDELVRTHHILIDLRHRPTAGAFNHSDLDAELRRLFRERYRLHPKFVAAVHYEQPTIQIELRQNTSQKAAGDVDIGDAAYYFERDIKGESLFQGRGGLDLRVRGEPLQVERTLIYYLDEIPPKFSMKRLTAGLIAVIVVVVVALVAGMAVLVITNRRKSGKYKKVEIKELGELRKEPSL
# T2: recombinant human Trop-2 (Sino Biological, Cat. No: 10428-H08H) (human, UniProt P09758 27-274)
# T2 construct: Coated on the ELISA plate
# T2 sequence (looked up): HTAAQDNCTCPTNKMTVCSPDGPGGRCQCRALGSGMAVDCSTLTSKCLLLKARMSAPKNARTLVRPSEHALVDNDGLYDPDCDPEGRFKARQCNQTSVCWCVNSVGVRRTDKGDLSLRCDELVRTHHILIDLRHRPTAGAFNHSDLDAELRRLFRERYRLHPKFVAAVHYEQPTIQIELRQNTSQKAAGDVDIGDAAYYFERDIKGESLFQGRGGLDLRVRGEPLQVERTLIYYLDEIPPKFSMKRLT
# B1: heterodimeric anti-Trop-2/anti-CD3-scFv bispecific antibody (bispecific antibody)
# heavy: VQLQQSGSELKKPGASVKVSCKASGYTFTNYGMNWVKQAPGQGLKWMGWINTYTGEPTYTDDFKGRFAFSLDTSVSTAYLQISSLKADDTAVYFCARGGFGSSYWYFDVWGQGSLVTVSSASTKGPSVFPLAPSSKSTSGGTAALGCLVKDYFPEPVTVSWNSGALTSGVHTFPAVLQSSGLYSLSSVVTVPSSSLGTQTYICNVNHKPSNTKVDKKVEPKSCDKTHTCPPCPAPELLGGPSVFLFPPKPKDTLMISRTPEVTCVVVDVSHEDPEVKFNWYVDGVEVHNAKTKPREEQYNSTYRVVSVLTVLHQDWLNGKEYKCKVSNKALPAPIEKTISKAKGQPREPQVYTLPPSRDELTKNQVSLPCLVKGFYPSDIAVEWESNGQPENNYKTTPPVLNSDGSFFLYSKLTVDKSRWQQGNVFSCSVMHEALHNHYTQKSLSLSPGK
# light: DIQLTQSPSSLSASVGDRVSITCKASQDVSIAVAWYQQKPGKAPKLLIYSASYRYTGVPDRFSGSGSGTDFTLTISSLQPEDFAVYYCQQHYITPLTFGAGTKVEIKRTVAAPSVFIFPPSDEQLKSGTASVVCLLNNFYPREAKVQWKVDNALQSGNSQESVTEQDSKDSTYSLSSTLTLSKADYEKHKVYACEVTHQGLSSPVTKSFNRGEC
# scFv: not shown
# notes: also called anti-Trop2/anti CD3-scFv heterodimer; Anti-Trop-2/CD3 heterodimeric BsAb
# Legend:
# [1] = biological target: T1, Trop-2 on BxPC3 cells; assay: flow cytometry of PKH26-stained BxPC3 and CFSE-stained Jurkat cells, as in Example 9
# Protocol: The above stained SK-BR-3 cells and Jurkat cells were collected by centrifugation and washed once with cold assay buffer which is cold PBS containing 2% FBS. The cells were resuspended at a cell density of 5×10⁶ cells/mL in the cold assay buffer. SK-BR-3 cells and Jurkat cells were mixed in proportion of 1:1 and pipetted 100 μL aliquot of the mixtures for each tube (namely 2.5×10⁵ SK-BR-3 cells and 2.5×10⁵ Jurkat cells). […] Diluted in the assay buffer, the final concentration was 5 nM. The tubes were incubated for 30 minutes on ice in the dark, washed twice with cold assay buffer, and then resuspended in 500 μL of cold PBS. Flow cytometry was performed using FACS Calibur.
# BxPC3 cells were stained according to the operation instruction of PKH26 kits and Jurkat cells were stained by CFSE kit.
# [2] = biological target: T2, recombinant human Trop-2 (Sino …); assay: ELISA, recombinant human Trop-2 coated at 1 ug/mL, anti-human IgG-HRP
binder,measurement,setting,value
B1,binding result,[1],binds
same,binding result,[2],binds
